Test results published in patent publication US20210324108A1.

Biological target: human 4-1BB on Jurkat-hu4-1BB-NFκB-luc2 reporter cells (human) (UniProt Q07011)
Assay: cell-based or functional assay

Chain of human 4-1BB on Jurkat-hu4-1BB-NFκB-luc2 reporter cells (human) (Q07011 24-255 limits assumed): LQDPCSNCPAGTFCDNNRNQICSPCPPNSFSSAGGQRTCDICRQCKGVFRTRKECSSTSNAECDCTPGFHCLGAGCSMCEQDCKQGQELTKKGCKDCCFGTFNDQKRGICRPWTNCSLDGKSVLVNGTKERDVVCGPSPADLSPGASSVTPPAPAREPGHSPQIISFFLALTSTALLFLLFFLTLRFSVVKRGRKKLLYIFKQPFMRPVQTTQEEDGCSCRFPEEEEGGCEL

EC50 of NFκB-luciferase activation in Jurkat-hu4-1BB-NFκB-luc2 cells with NIH/3T3-huFAP clone 19: 0.02 nM | area under the curve (AUC) of NFκB-luciferase activation in Jurkat-hu4-1BB-NFκB-luc2 cells with NIH/3T3-huFAP clone 19: 53500
Substance: 2+1 bispecific agonistic anti-4-1BB (20H4.9) x anti-FAP (4B9) huIgG1 P329GLALA antibody (bispecific antibody)
